Measurements reported in paper PMC8393709.

Columns and labels:
[1] = target: HPV16 E6 Y43E/F47R, full length (RLuc- and YFP-tagged); test: BRET; conditions: parent: est. 150; read off a plot
[2] = target: HPV16 E6N Y43E/F47R, amino acids 1 to 80 (RLuc- and YFP-tagged); test: BRET binding curve; conditions: HEK 293T cells; value at the highest YFP/RLuc point of each curve (mutant x about 860, E6N x about 880); non-specific level (E6N + UL44) about 65; parent: est. 250; read off a plot
[3] = target: HPV16 E6N Y43E/F47R, amino acids 1 to 80 (RLuc- and YFP-tagged); test: BRET; conditions: HEK 293T cells; RLuc- and YFP-tagged E6N fragments (amino acids 1 to 80); parent: est. 160; read off a plot

## HPV16 E6, wild-type, full length (RLuc-E6 and YFP-E6) (from UniProt P03126) Y43E; F47R
[1]
  response: 53 a.u. (mBR)

## HPV16 E6N, N-terminal domain of E6, amino acids 1 to 80 (RLuc-E6N and YFP-E6N) Y43E; F47R
[2]
  response: 120 a.u. (mBR)
[3]
  response: 70 a.u. (mBR)
